# Patent publication US20140357845A1
# B1: CR6261 (antibody, V domains shown)
# VH: EVQLVESGAEVKKPGSSVKVSCKASGGPFRSYAISWVRQAPGQGPEWMGGIIPIFGTTKYAPKFQGRVTITADDFAGTVYMELSSLRSEDTAMYYCAKHMGYQVRETMDVWGKGTTVTVSS
# VL: QSVLTQPPSVSAAPGQKVTISCSGSSSNIGNDYVSWYQQLPGTAPKLLIYDNNKRPSGIPDRFSGSKSGTSATLGITGLQTGDEANYYCATWDRRPTAYVVFGGGTKLTVLG
# Assays:
# [1] = target: s-H1 Full-length R343Q (A/Brisbane/59/2007), monomeric form (influenza A virus H1N1), B4URD6; conditions: remark: other sources report otherwise
# [2] = target: s-H1 Full-length R343Q (A/Brisbane/59/2007), trimeric form (influenza A virus H1N1), B4URD6; conditions: remark: other sources report otherwise
binder,measurement,setting,value
B1,BLI response,[1],0.9 nm
same,BLI response,[2],1.3 nm
